Data reported in paper PMC10936178 (mBio, 2024).

B1: full-length Plasmodium vivax Sub1 (PvS1FL), recombinant, autocleaved at Asp202 (enzyme)
chain 1: GDILPNEGKKEKDDVHKIISELRFLQKVETILESSNMSVSDVEADANAYNPDRDAPKEELQKLQDQQETPSKQPNNLRNSPQKRAEKKESPGKNKKSLRLIVSENHATSPSFFEESLLQEDVVSFIQSKGKLSNLKNLKSMIIDLNSDMTDEELAEYISLLERKGALIESDKLVGAD
chain 2: DVSLASVKDAVRRGESSVNWGKLRSTMLEVPSGESPPSHAASSGSPFDDDDDLLSEAALHREEAHLAGSKTTKGYKFNDEYRNLQWGLDLARLDETQDLINANRVSVTKICVIDSGIDYNHPDLRNNIDVNVKELHGRKGVDDDSNGVVDDVYGANFVNNSGDPMDDNYHGTHVSGIISAVGNNGIGIVGVDGHSKLVICKALDQHKLGRLGDMFKCIDYCISRQAHMINGSFSFDEYSNIFNASVEHLRSLGILFFVSASNCAHDKLSKPDIAKCDLAVNHRYPPILSKTHNNVIAVANLKRDLDESYSLSVNSFYSNIYCQLAAPGTNIYSTTPMNNYRKLNGTSMASPHVAAIASIVRSINPNLTYLQIVEILRNAIVKLPSLTERVSWGGYVDILRAVNLAIDSKAAPYIKSHSWFRWKQGSRR
notes: Prodomain of P. vivax Sub1 up to the primary maturation site Asp202; Catalytic domain of P. vivax Sub1, from the residue after the primary maturation site Asp202 to the C-terminus

How the values were obtained:
[1] = molecular target: PvS1FL (full-length Plasmodium vivax subtilisin-like protease 1, Sub1, autoprocessed with bound prodomain) (UniProt E6Y8B9); assay: analytical ultracentrifugation, sedimentation equilibrium (Beckman Coulter XL-I, absorbance at 280 nm); conditions: 20°C, 150 mM NaCl, 10 mM CaCl2, pH 5: 50 mM NaCit (sodium citrate), pH 8: 50 mM Tris
[2] = molecular target: the molecule itself; assay: AUC; sedimentation equilibrium, pH 5 (50 mM NaCit pH 5, 150 mM NaCl, 10 mM CaCl2), 20°C, 2, 5 and 10 µM protein, 9,000, 13,000 and 16,000 rpm, single-species model

| Molecule | apparent molecular weight (single-species fit); oligomeric state ([1]; pH 5) | apparent molecular weight (single-species fit); oligomeric state ([1]; pH 8) | stoichiometry N [2] |
| --- | --- | --- | --- |
| PvS1FL (full-length Plasmodium vivax subtilisin-like protease 1, Sub1, autoprocessed with bound prodomain) | 135.8 ± 2.8 kDa (stable homodimer; theoretical monomer 67.71 kDa) | 67.9 ± 1.1 kDa (monomer; theoretical monomer 67.71 kDa) |  |
| B1 |  |  | 2 |
